Patent US20240301054A1, “TIM-3 INHIBITORS AND USES THEREOF” (Novartis AG, priority 2019, published 2024)

Biological target: T1, interaction between TIM-3 and Galectin-9 (Homo sapiens, UniProt Q8TDQ0)
T1 construct: purchased R&D Systems
Assay: Plate-based (MesoScale) competition assay of the TIM-3/Galectin-9 interaction
Format: binding
Conditions: TIM-3 fusion protein coated at 2 μg/ml; SULFOTag Galectin-9 100 nM; FIG. 1
Procedure: TIM-3 fusion protein (R&D Systems) was coated on a standard MesoScale 96 well plate (Meso Scale Discovery) at 2 μg/ml in PBS (Phosphate Buffered Saline) and incubated for six hours at room temperature. The plate was washed three times with PBST (PBS buffer containing 0.05% Tween-20) and blocked with PBS containing 5% Probumin (Millipore) overnight at 4° C. After incubation, the plate was washed three times with PBST and unlabeled antibody (F38-2E2 (BioLegend); MBG453; MBG453 F(ab′)2; MBG453 F(ab); or control recombinant human Galectin-9 protein) diluted in Assay Diluent (2% Probumin, 0.1% Tween-20, 0.1% Triton X-100 (Sigma) with 10% StabilGuard (SurModics)), was added in serial dilutions to the plate and incubated for one hour on an orbital shaker at room temperature. The plate was then washed three times with PBST, and Galectin-9 labeled with MSD SULFOTag (Meso Scale Discovery) as per manufacturer's instructions, diluted in Assay Diluent to 100 nM, was added to the plate for one hour at room temperature on an orbital shaker. The plate was again washed three times with PBST, and Read Buffer T (1×) was added to the plate. The plate was read on MA600 Imager, and competition was assessed as a measure of the ability of the antibody to block Ga19-SULFOTag signal to TIM-3 receptor.

B1: control Galectin-9 protein: control recombinant human Galectin-9 protein, unlabeled (protein)
chain: AFSGSQAPYLSPAVPFSGTIQGGLQDGLQITVNGTVLSSSGTRFAVNFQTGFSGNDIAFHFNPRFEDGGYVVCNTRQNGSWGPEERKTHMPFQKGMPFDLCFLVQSSDFKVMVNGILFVQYFHRVPFHRVDTISVNGSVQLSYISFQPPGVWPANPAPITQTVIHTVQSAPGQMFSTPAIPPMMYPHPAYPMPFITTILGGLYPSKSILLSGTVLPSAQRFHINLCSGNHIAFHLNPRFDENAVVRNTQIDNSWGSEERSLPRKMPFVRGQSFSVWILCEAHCLKVAVDGQHLFEYYHRLRNLPTINRLEVGGDIQLTHVQT
ability of the antibody to block Ga19-SULFOTag signal to TIM-3 receptor (interaction between TIM-3 and Galectin-9): did not
